Source: patent publication US20240059799A1 (Pfizer, published 2024)

T1: recombinant human TL1A (human, UniProt O95150 71-251)
T1 construct: TL1A is described as a homotrimer; Biotinylated for SPR capture; also called TNFSF15
T1 chain: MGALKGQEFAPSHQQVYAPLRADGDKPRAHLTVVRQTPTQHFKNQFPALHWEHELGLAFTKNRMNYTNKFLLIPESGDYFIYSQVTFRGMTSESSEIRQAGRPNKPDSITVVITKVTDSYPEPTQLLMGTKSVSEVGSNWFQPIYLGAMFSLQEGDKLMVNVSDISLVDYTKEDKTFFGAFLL

T2: human IL-23 (human, UniProt P29460 23-328; Q9NPF7 20-189)
T2 construct: also called recombinant human IL-23 (p40/p19)
T2 sequence 1: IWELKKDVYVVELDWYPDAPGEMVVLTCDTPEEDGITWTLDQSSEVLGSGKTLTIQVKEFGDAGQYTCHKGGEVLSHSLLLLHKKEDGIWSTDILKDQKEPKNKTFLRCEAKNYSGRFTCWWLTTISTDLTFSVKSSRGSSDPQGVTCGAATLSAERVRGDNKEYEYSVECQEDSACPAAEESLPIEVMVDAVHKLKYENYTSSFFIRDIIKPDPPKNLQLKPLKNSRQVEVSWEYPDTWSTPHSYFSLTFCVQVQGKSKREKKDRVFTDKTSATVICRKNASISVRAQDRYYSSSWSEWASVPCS
T2 sequence 2: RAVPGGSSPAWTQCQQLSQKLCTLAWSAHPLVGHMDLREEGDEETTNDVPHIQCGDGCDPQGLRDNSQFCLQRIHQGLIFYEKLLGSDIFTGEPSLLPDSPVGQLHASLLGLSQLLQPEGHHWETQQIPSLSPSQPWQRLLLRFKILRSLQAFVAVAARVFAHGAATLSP


Experiments:
recombinant human TL1A [1] = biological target: T1, recombinant human TL1A; test: SPR, 37 C; biotinylated human TL1A captured on Biotin CAPture chip, antibody injected
Procedure: (§1) SPR was utilized to determine if the affinity constants of each arm of the bispecific variants binding human IL-23, containing the p40 subunit, and human TL1A were the same for each bispecific approach. For the analysis of the p40 binding arm, kinetic assays were conducted at 37° C. using a collection rate of 10 Hz on a Biacore™ 8 K+ instrument (GE Healthcare). An anti-human IgG antibody (anti-human Fc, GE Healthcare, 22-0648-88) was amine coupled to all four flow cells of a carboxymethylated dextran coated sensor chip (GE Healthcare,) using the manufacturer's recommended protocol. […] For the analysis of the TL1A binding arm, kinetic assays were conducted at 37° C. using a collection rate of 10 Hz on a Biacore™ T200 instrument (GE Healthcare).
(§2) As described above in EXAMPLE 12, SPR was utilized to determine if the affinity constants of each arm of the bispecific variants binding human IL-23, containing the p40 subunit, and human TL1A were the same for each bispecific variant.

recombinant human TL1A [2] = biological target: T1, recombinant human TL1A; test: cell-based or functional assay
human IL-23 = biological target: T2, human IL-23; test: SPR, 37 C; antibody captured by anti-human Fc, human IL-23 injected
Procedure: as §1, §2

human serum albumin = biological target: T3, human serum albumin (human, UniProt P02768 25-609); test: direct binding ELISA on coated HSA
T3 construct: also called HSA
Procedure: (§3) For the direct binding ELISA method to HSA or BSA, 96-well high binding plates (Corning, product number 3590) were coated with 1 μg/mL recombinant HSA or BSA in 100 μL/well in PBS overnight at 4° C. Plates were then blocked in PBS+0.02% casein solution and washed with PBS+0.05% Tween-20 following standard ELISA protocol. […] Plates were washed with PBS+0.05% Tween-20 following standard ELISA protocol, and goat anti-human IgG-Fc HRP conjugated secondary antibody (Pierce, #31413) diluted to 1:10,000 in assay buffer was added to plates and incubated for 1 hour at room temperature. Next, the plates were washed with PBS+0.05% Tween-20 following standard ELISA protocol, and then TMB substrate (BioFX Laboratories, catalog number TMBW-0100-01) was added to plates.
(§4) Reactions were stopped after approximately 5 minutes by adding 0.18 M ortho-phosphoric acid to each well and absorbance was read at 450 nm. […] For this method, samples diluted to 0.3 mg/mL were dispensed into the sample tray of a MicroCal VP-Capillary DSC with Autosampler (Malvern Instruments, Inc.), equilibrated for 5 minutes at 10° C. and then scanned up to 110° C. at a rate of 100° C. per/hour. A filtering period of 16 seconds was selected. Raw data was baseline corrected and the protein concentration was normalized. Origin Software 7.0 (Origin Lab Corporation, Northampton, MA) was used to fit the data to an MN2-State Model with an appropriate number of transitions.

bovine serum albumin = biological target: T4, bovine serum albumin (bovine, UniProt P02769 25-607); test: direct binding ELISA on coated BSA
T4 construct: also called BSA
Procedure: as §3, §4

T4 sequence (P02769 25-607 limits assumed): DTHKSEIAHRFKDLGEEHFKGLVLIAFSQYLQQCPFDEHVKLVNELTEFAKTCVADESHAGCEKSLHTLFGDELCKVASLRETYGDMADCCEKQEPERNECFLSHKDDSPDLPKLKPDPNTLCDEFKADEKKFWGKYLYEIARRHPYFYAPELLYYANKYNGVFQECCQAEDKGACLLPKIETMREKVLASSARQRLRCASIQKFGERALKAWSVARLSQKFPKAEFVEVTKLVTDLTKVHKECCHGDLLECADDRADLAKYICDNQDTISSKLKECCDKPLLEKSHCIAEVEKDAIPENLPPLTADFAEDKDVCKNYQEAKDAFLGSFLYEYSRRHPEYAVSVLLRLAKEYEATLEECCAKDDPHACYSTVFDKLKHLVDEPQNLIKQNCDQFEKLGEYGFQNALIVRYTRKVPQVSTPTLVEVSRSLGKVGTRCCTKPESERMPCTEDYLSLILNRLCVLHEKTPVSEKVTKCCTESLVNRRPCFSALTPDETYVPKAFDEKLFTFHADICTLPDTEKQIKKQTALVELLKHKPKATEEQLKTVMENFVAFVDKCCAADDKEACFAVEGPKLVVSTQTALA

| Kd (recombinant human TL1A [1]) [nM] | koff (recombinant human TL1A [1]) [s⁻¹] | kon (recombinant human TL1A [1]) [M⁻¹ s⁻¹] | NF-κB assay IC50 (TF-1 reporter cells, 384-well) (recombinant human TL1A [2]) [nM] | Kd (human IL-23) [nM] | koff (human IL-23) [s⁻¹] | kon (human IL-23) [M⁻¹ s⁻¹] | binding result (human serum albumin) | binding result (bovine serum albumin) | Binder |
| --- | --- | --- | --- | --- | --- | --- | --- | --- | --- |
| 0.577 | 7.56e-05 | 131000 | 0.32 | 0.213 | 0.000485 | 2.29e+06 |  |  | p40TL1A-0041 KiH mFd bispecific antibody (bispecific antibody, KiH mFd format with the anti-p40 arm as modified Fd) heavy: QVQLVQSGAEVKKPGASVKVSCKASGYDYTYYGISWVRQAPGQGLEWMGWISTYNTGTHYAPSLQGRVTMTTDTSTSTAYMELRSLRSDDTAVYYCARESYYGSGAFRGGMDVWGQGTTVTVSSASTKGPSVFPLAPSSKSTSGGTAALGCLVKDYFPEPVTVSWNSGALTSGVHTFPAVLQSSGLYSLSSVVTVPSSSLGTQTYICNVNHKPSNTKVDKKVEPKSCDKTHTCPPCPAPEAAGAPSVFLFPPKPKDTLMISRTPEVTCVVVDVSHEDPEVKFNWYVDGVEVHNAKTKPREEQYNSTYRVVSVLTVLHQDWLNGKEYKCKVSNKALPAPIEKTISKAKGQPREPQVCTLPPSREEMTKNQVSLWCLVKGFYPSDIAVEWESNGQPENNYKTTPPVLDSDGSFFLYSKLTVDKSRWQQGNVFSCSVLHEALHSHYTQKSLSLSPGK light: not shown LC-Fc: not shown mFd: EVQLVQSGAEVKKPGESLKISCKGSGYSFTTYWLGWVRQMPGKGLDWIGIMSPVDSDIRYSPSFQGQVTMSVDKSITTAYLQWNSLKASDTAMYYCARRRPGQGYFDFWGQGTLVTVSSASTKGPSVFPLAPSSKSTSGGTAALGCLVKDYFPEPVTVSWNSGALTSGVHTFPAVLQSSGLYSLSSVVTVPSSSLGTQTYICNVNHKPSNTKVDKKVEPKSC |
|  |  |  |  |  |  |  | no binding (tested: 0.5-1000 nM) | no binding (tested: 0.5-1000 nM) | TL1A-0368 MBsAb (bispecific antibody, not shown: human IgG1 constant region with hole KiH, effector-minimizing and LS mutations) heavy 1: QVQLVQSGAEVKKPGASVKVSCKASGYDYTYYGISWVRQAPGQGLEWMGWISTYNTGTHYAPSLQGRVTMTTDTSTSTAYMELRSLRSDDTAVYYCARESYYGSGAFRGGMDVWGQGTTVTVSSASTKGPSVFPLAPSSKSTSGGTAALGCLVKDYFPEPVTVSWNSGALTSGVHTFPAVLQSSGLYSLSSVVTVPSSSLGTQTYICNVNHKPSNTKVDKKVEPKSCDKTHTCPPCPAPEAAGAPSVFLFPPKPKDTLMISRTPEVTCVVVDVSHEDPEVKFNWYVDGVEVHNAKTKPREEQYNSTYRVVSVLTVLHQDWLNGKEYKCKVSNKALPAPIEKTISKAKGQPREPQVCTLPPSREEMTKNQVSLWCLVKGFYPSDIAVEWESNGQPENNYKTTPPVLDSDGSFFLYSKLTVDKSRWQQGNVFSCSVLHEALHSHYTQKSLSLSPGK heavy 2: QVQLVQSGAEVKKPGASVKVSCKASGYTFTSYGISWVRQAPGQGLEWMGWISAYNGNTNYAQKLQGRVTMTTDTSTSTAYMELRSLRSDDTAVYYCARESYYGSEAFRAGMDVWGQGTTVTVSS light: not shown |
|  |  |  |  |  |  |  | no binding (tested: 0.5-1000 nM) | no binding (tested: 0.5-1000 nM) | TL1A-0370 MBsAb (bispecific antibody, not shown: human IgG1 constant region with hole KiH, effector-minimizing and LS mutations) heavy 1: QVQLVQSGAEVKKPGASVKVSCKASGYDYTYYGISWVRQAPGQGLEWMGWISTYNTGTHYAPSLQGRVTMTTDTSTSTAYMELRSLRSDDTAVYYCARESYYGSGAFRGGMDVWGQGTTVTVSSASTKGPSVFPLAPSSKSTSGGTAALGCLVKDYFPEPVTVSWNSGALTSGVHTFPAVLQSSGLYSLSSVVTVPSSSLGTQTYICNVNHKPSNTKVDKKVEPKSCDKTHTCPPCPAPEAAGAPSVFLFPPKPKDTLMISRTPEVTCVVVDVSHEDPEVKFNWYVDGVEVHNAKTKPREEQYNSTYRVVSVLTVLHQDWLNGKEYKCKVSNKALPAPIEKTISKAKGQPREPQVCTLPPSREEMTKNQVSLWCLVKGFYPSDIAVEWESNGQPENNYKTTPPVLDSDGSFFLYSKLTVDKSRWQQGNVFSCSVLHEALHSHYTQKSLSLSPGK heavy 2: QVQLVQSGAEVKKPGASVKVSCKASGYTFTSYGISWVRQAPGQGLEWMGWISAYNGNTNYAQKLQGRVTMTTDTSTSTAYMELRSLRSDDTAVYYCARESSYGSEAFRAGMDVWGQGTTVTVSS light: not shown |
| 0.419 | 7.42e-05 | 177000 | 0.32 | 0.207 | 0.000488 | 2.35e+06 |  |  | p40TL1A-0042 KiH mFd bispecific antibody (bispecific antibody, KiH mFd format with the anti-p40 arm as modified Fd) heavy: QVQLVQSGAEVKKPGASVKVSCKASGYDYTYYGISWVRQAPGQGLEWMGWISTYNTGTHYAPSLQGRVTMTTDTSTSTAYMELRSLRSDDTAVYYCARESYYGSGAFRGGMDVWGQGTTVTVSSASTKGPSVFPLAPSSKSTSGGTAALGCLVKDYFPEPVTVSWNSGALTSGVHTFPAVLQSSGLYSLSSVVTVPSSSLGTQTYICNVNHKPSNTKVDKKVEPKSCDKTHTCPPCPAPEAAGAPSVFLFPPKPKDTLMISRTPEVTCVVVDVSHEDPEVKFNWYVDGVEVHNAKTKPREEQYNSTYRVVSVLTVLHQDWLNGKEYKCKVSNKALPAPIEKTISKAKGQPREPQVYTLPPCREEMTKNQVSLSCAVKGFYPSDIAVEWESNGQPENNYKTTPPVLDSDGSFFLVSKLTVDKSRWQQGNVFSCSVLHEALHSHYTQKSLSLSPGK light: not shown LC-Fc: not shown mFd: EVQLVQSGAEVKKPGESLKISCKGSGYSFTTYWLGWVRQMPGKGLDWIGIMSPVDSDIRYSPSFQGQVTMSVDKSITTAYLQWNSLKASDTAMYYCARRRPGQGYFDFWGQGTLVTVSSASTKGPSVFPLAPSSKSTSGGTAALGCLVKDYFPEPVTVSWNSGALTSGVHTFPAVLQSSGLYSLSSVVTVPSSSLGTQTYICNVNHKPSNTKVDKKVEPKSC |
| 0.627 | 8.22e-05 | 131000 | 0.27 | 0.194 | 0.00055 | 2.83e+06 |  |  | p40TL1A-0040 KiH mFd bispecific antibody (bispecific antibody, Same format as p40TL1A-0033 with knob and hole swapped) heavy: EVQLVQSGAEVKKPGESLKISCKGSGYSFTTYWLGWVRQMPGKGLDWIGIMSPVDSDIRYSPSFQGQVTMSVDKSITTAYLQWNSLKASDTAMYYCARRRPGQGYFDFWGQGTLVTVSSASTKGPSVFPLAPSSKSTSGGTAALGCLVKDYFPEPVTVSWNSGALTSGVHTFPAVLQSSGLYSLSSVVTVPSSSLGTQTYICNVNHKPSNTKVDKKVEPKSCDKTHTCPPCPAPEAAGAPSVFLFPPKPKDTLMISRTPEVTCVVVDVSHEDPEVKFNWYVDGVEVHNAKTKPREEQYNSTYRVVSVLTVLHQDWLNGKEYKCKVSNKALPAPIEKTISKAKGQPREPQVYTLPPCREEMTKNQVSLSCAVKGFYPSDIAVEWESNGQPENNYKTTPPVLDSDGSFFLVSKLTVDKSRWQQGNVFSCSVLHEALHSHYTQKSLSLSPGK light: not shown LC-Fc: not shown mFd: QVQLVQSGAEVKKPGASVKVSCKASGYDYTYYGISWVRQAPGQGLEWMGWISTYNTGTHYAPSLQGRVTMTTDTSTSTAYMELRSLRSDDTAVYYCARESYYGSGAFRGGMDVWGQGTTVTVSSASTKGPSVFPLAPSSKSTSGGTAALGCLVKDYFPEPVTVSWNSGALTSGVHTFPAVLQSSGLYSLSSVVTVPSSSLGTQTYICNVNHKPSNTKVDKKVEPKSC |
